Legend:
[1] = target: the molecule itself; experiment: SEC; Superdex 75 during purification; 20 mM HEPES pH 7.6, 500 mM NaCl, 0.1 mM TCEP; elution compared with standard proteins
[2] = target: the molecule itself; experiment: crystal structure; apo GLI1(234–302), no DNA; sitting drop, 29–32% PEG3350, 0.1 M Bis-Tris pH 6.5; two molecules in the asymmetric unit, space group P65, 2.05 Å

B1: GLI1(234–326) (domain or fragment, human, UniProt P08151 234-326, looked up)
chain: ETDCRWDGCSQEFDSQEQLVHHINSEHIHGERKEFVCHWGGCSRELRPFKAQYMLVVHMRRHTGEKPHKCTFEGCRKSYSRLENLKTHLRSHT
notes: a few residues of the TEV site and linker may remain at the N-terminus (surmised); also called Zif truncation with 3 Zif motifs; not shown: His6, N-terminal, cleaved; SUMO (yeast SMT3), N-terminal, cleaved
[1]
  stoichiometry N: 2

B2: Human GLI1 truncation containing zinc finger motif 1 and 2 (residue 234–302) (domain or fragment)
chain: ETDCRWDGCSQEFDSQEQLVHHINSEHIHGERKEFVCHWGGCSRELRPFKAQYMLVVHMRRHTGEKPHK
notes: TEV protease was used to remove His-SUMO; Two zinc ions per chain; also called GLI1 Zif1-2; source: E. coli Rosetta pLysS, purified (Ni-NTA, TEV cleavage, glutathione column, HiTrap Q HP, Superdex 75); not shown: His6, N-terminal, cleaved; SUMO (yeast SMT3), N-terminal, cleaved
[2]
  binding result: binds

B3: GLI1(234–388) (domain or fragment, human, UniProt P08151 234-388, looked up)
chain: ETDCRWDGCSQEFDSQEQLVHHINSEHIHGERKEFVCHWGGCSRELRPFKAQYMLVVHMRRHTGEKPHKCTFEGCRKSYSRLENLKTHLRSHTGEKPYMCEHEGCSKAFSNASDRAKHQNRTHSNEKPYVCKLPGCTKRYTDPSSLRKHVKTVHG
notes: a few residues of the TEV site and linker may remain at the N-terminus (surmised); PDB 2GLI is the cited structure of GLI1 Zif1-5 with DNA; also called Zif truncation with 5 Zif motifs; Zif1-5; not shown: His6, N-terminal, cleaved; SUMO (yeast SMT3), N-terminal, cleaved
[1]
  stoichiometry N: 2

B4: GLI1(234–358) (domain or fragment)
chain: not shown
notes: a few residues of the TEV site and linker may remain at the N-terminus (surmised); also called Zif truncation with 4 Zif motifs; not shown: His6, N-terminal, cleaved; SUMO (yeast SMT3), N-terminal, cleaved
[1]
  stoichiometry N: 2

— PMC11677393 (International Journal of Molecular Sciences, 2024)
